Several values for one entry are separate records, joined by “and”; a condition that tells them apart may be missing. Equal entries are not always repeated. Where two headings read alike, the source gives them in different places.
Experiments:
[1] = target: T1, human TIM3, full length, on cells (human, UniProt Q8TDQ0 22-301); test: FACS, human CD14+ monocytes, donor3, 10 µg/ml
[2] = target: T1, human TIM3, full length, on cells; test: FACS competition, RPMI-8226 cells; competitor Tim3_0018
[3] = target: T1, human TIM3, full length, on cells; test: FACS competition, RPMI-8226 cells; competitor Tim3_0038
[4] = target: cynomolgus TIM-3 on isolated cyno CD14+ monocytes (cynomolgus monkey); test: FACS, cyno CD14+ monocytes, cyno3 (30085F)
[5] = target: cynomolgus TIM-3 on isolated cyno CD14+ monocytes (cynomolgus monkey); test: FACS, cyno CD14+ monocytes, cyno2 (17435M)
[6] = target: T1, human TIM3, full length, on cells; test: FACS competition, RPMI-8226 cells; competitor Tim3_0022
[7] = target: cynomolgus TIM-3 on isolated cyno CD14+ monocytes (cynomolgus monkey); test: FACS, cyno CD14+ monocytes, cyno1 (16719M)
[8] = target: T1, human TIM3, full length, on cells; test: FACS competition, RPMI-8226 cells; competitor Tim3_0026
[9] = target: T1, human TIM3, full length, on cells; test: FACS competition, RPMI-8226 cells; competitor Tim3_0016
[10] = target: T1, human TIM3, full length, on cells; test: FACS competition, RPMI-8226 cells; competitor Tim3_0028
[11] = target: T1, human TIM3, full length, on cells; test: FACS, human CD14+ monocytes, donor2, 10 µg/ml
[12] = target: T1, human TIM3, full length, on cells; test: FACS, human CD14+ monocytes, donor1, 10 µg/ml
[13] = target: cynomolgus TIM-3 on isolated cyno CD14+ monocytes (cynomolgus monkey); test: FACS, cyno CD14+ monocytes, cyno1 (16719M), isotype control
[14] = target: cynomolgus TIM-3 on isolated cyno CD14+ monocytes (cynomolgus monkey); test: FACS, cyno CD14+ monocytes, cyno2 (17435M), isotype control
[15] = target: T1, human TIM3, full length, on cells; test: FACS, human CD14+ monocytes, donor3, isotype control
[16] = target: cynomolgus TIM-3 on isolated cyno CD14+ monocytes (cynomolgus monkey); test: FACS, cyno CD14+ monocytes, cyno3 (30085F), isotype control
[17] = target: T1, human TIM3, full length, on cells; test: FACS, human CD14+ monocytes, donor1, isotype control
[18] = target: T1, human TIM3, full length, on cells; test: FACS, human CD14+ monocytes, donor2, isotype control
[19] = target: T2, Fc-tagged human Tim3-ECD dimer (human, UniProt Q8TDQ0 22-202); test: SPR, Ab captured on anti-mouse IgG, 25 C
T2 construct: also called huTim3Fc; huFc fused dimeric human Tim3-ECD

monomeric human Tim3-ECD [20] = target: T3, monomeric human Tim3-ECD (human, UniProt Q8TDQ0 22-202); test: SPR, Ab captured on anti-mouse IgG, 25 C
T3 construct: also called huTim3; hu Tim3-ECD

[21] = target: T1, human TIM3, full length, on cells; test: cell ELISA, CHO-K1 with full-length human Tim3
Tim3-ECD-His-Biotin [22] = target: T4, Tim3-ECD-His-Biotin (human, UniProt Q8TDQ0 22-202, biotinylated with BirA Ligase); test: ELISA on human Tim3
T4 construct: Coated on streptavidin plates; also called human Tim3 (ELISA); Biochem Human

[23] = target: monomeric cyno Tim3-ECD (cynomolgus); test: SPR, Ab captured on anti-mouse IgG, 25 C
[24] = target: T1, human TIM3, full length, on cells; test: cell-based or functional assay
[25] = target: monomeric cyno Tim3-ECD (cynomolgus); test: ELISA on cynomolgus Tim3
[26] = target: T1, human TIM3, full length, on cells; test: cell-based or functional assay; remark: listed apart in the source
[27] = target: T5, cynomolgus TIM-3 on isolated cyno CD14+ monocytes (cynomolgus monkey, UniProt A0A2K5U3G7 22-294); test: FACS, cyno CD14+ monocytes, cyno3 (30085F)
T5 construct: whole, on cells; also called cyno monocytes expressing TIM-3
T5 sequence: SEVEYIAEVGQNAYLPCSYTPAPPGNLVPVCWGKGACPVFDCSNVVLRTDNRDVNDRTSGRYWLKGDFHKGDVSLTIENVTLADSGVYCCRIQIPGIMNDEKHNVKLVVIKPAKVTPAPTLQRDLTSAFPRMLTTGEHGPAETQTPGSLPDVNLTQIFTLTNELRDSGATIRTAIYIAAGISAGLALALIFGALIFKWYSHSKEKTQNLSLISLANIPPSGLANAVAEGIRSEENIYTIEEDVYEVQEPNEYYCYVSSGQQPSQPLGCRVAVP
Source text: (§1) CD14+ Monocytes were isolated from cynomolgus monkey anticoagulated peripheral blood (Covance) by density gradient centrifugation using Ficoll-Paque (GE Healthcare) (see General Protocols in the User Manuals or visit www.miltenyibiotec.com/protocols) and subsequent positive selection via NHP CD14 MicroBeads. First the CD14+ cells are magnetically labeled with CD14 MicroBeads. Then the cell suspension is loaded onto a MACS® Column which is placed in the magnetic field of a MACS Separator. The magnetically labeled CD14+ cells are retained in the column. The unlabeled cells run through, this cell fraction is depleted of CD14+ cells. After removal of the column from the magnetic field, the magnetically retained CD14+ cells can be eluted as the positively selected cell fraction. After centrifugation at 200×g for 10 min at room temperature the monocytes were harvested and used directly in binding assay or resuspended in freezing medium (10% DMSO, 90% FCS) at 1.0E+07 cells/ml and stored in liquid nitrogen.
(§2) After washing and centrifugation MFI signals of stained cells were analyzed by BD Biosciences FACSCanto flow cytometer.

[28] = target: T5, cynomolgus TIM-3 on isolated cyno CD14+ …; test: FACS, cyno CD14+ monocytes, cyno2 (17435M)
Source text: as §1, §2

Tim3-ECD-His-Biotin [29] = target: T4, Tim3-ECD-His-Biotin; test: ELISA on Tim3-ECD-His-Biotin
Procedure: After washing (3×90 μl/well with PBST-buffer) 25 μl/well sheep-anti-mouse-POD (GE NA9310V) was added in 1:9000 dilution and incubated at RT for 1 h while shaking at 400 rpm rotation. After washing (4×90 μl/well with PBST-buffer) 25 TMB substrate (Calbiochem, #CL07) was added and incubated until OD 1.5-2.5. Then the reaction was stopped by addition of 25 μl/well 1N HCL-solution.

[30] = target: T5, cynomolgus TIM-3 on isolated cyno CD14+ …; test: FACS, cyno CD14+ monocytes, cyno1 (16719M)
Source text: as §1, §2

[31] = target: T2, Fc-tagged human Tim3-ECD dimer; test: SPR, Ab captured on anti-mouse IgG, dimeric Tim3-ECD-Fc
Procedure: Therefore, an anti-mouse IgG was immobilized by amine coupling to the surface of a (BIAcore) CMS sensor chip. […] The sensor chip surface was regenerated after each analysis cycle. The equilibrium constant KD was finally gained by fitting the data to a 1:1 Langmuir interaction model.
The samples were injected for 30 seconds with a concentration of 200 μg/ml and bound to the spots 1 and 5 of each flow cell, allowing the measurement of eight samples in parallel. […] The flow rate was set to 30 μl/min for the whole run.
Finally the double referenced data was fitted to a 1:1 Langmuir interaction model with the BIAcore B4000 Evaluation Software.

[32] = target: T1, human TIM3, full length, on cells; test: cell ELISA, CHO-K1 with full-length human Tim3
monomeric human Tim3-ECD [33] = target: T3, monomeric human Tim3-ECD; test: SPR, Ab captured on anti-mouse IgG, monomeric Tim3-ECD; monomer Tim3, not the Fc-tagged dimer
[34] = target: T1, human TIM3, full length, on cells; test: cell ELISA, CHO-K1 with full-length human Tim3; remark: listed apart in the source
Procedure: Then the reaction was stopped by addition of 25 μl/well 1N HCL-solution.

[35] = target: T1, human TIM3, full length, on cells; test: cell-based or functional assay; remark: listed apart in the source

## anti-human TIM-3 rat monoclonal antibody clone 344823 (R&D Systems)
[1]
  Specific Binding [MFI]: 814 MFI
[2]
  Max % Inhibition of Binding: 0%
[3]
  Max % Inhibition of Binding: 99%
[4]
  Specific Binding [MFI]: 143 MFI
[5]
  Specific Binding [MFI]: 121 MFI
[6]
  Max % Inhibition of Binding: 102%
[7]
  Specific Binding [MFI]: 158 MFI
[8]
  Max % Inhibition of Binding: 3%
[9]
  Max % Inhibition of Binding: 0%
[10]
  Max % Inhibition of Binding: 107%
[11]
  Specific Binding [MFI]: 917 MFI
[12]
  Specific Binding [MFI]: 1010 MFI

## M-IgG1 isotype control (antibody)
[13]
  Specific Binding [MFI]: 72 MFI
[14]
  Specific Binding [MFI]: 82 MFI
[15]
  Specific Binding [MFI]: 213 MFI
[16]
  Specific Binding [MFI]: 83 MFI
[17]
  Specific Binding [MFI]: 144 MFI
[18]
  Specific Binding [MFI]: 55 MFI

## anti-human TIM-3 mouse monoclonal antibody clone F38-2E2
[19]
  Kd: 7.5 nM
Monomeric human Tim3-ECD [20]
  Kd: 13.6 nM
[1]
  Specific Binding [MFI]: 460 MFI
[21]
  EC50: 0.15 µg/mL
  Inflexion point: 224 ng/mL
[2]
  Max % Inhibition of Binding: 6%
Tim3-ECD-His-Biotin [22]
  EC50: 0.0732 µg/mL
  Inflexion point: 88.3 ng/mL
[3]
  Max % Inhibition of Binding: 94%
[4]
  Specific Binding [MFI]: 124 MFI
[5]
  Specific Binding [MFI]: 136 MFI
[6]
  Max % Inhibition of Binding: 77%
[23]
  Kd: 168 nM
[7]
  Specific Binding [MFI]: 135 MFI
[8]
  Max % Inhibition of Binding: 2%
[24]
  IFNgamma release in MLR, % of rec hu IL-2 control, 1 µg/ml: 7%
  IFNgamma release in MLR, % of rec hu IL-2 control, 10 µg/ml: 26%
  IFNgamma release in MLR, % of rec hu IL-2 control, 40 µg/ml: 36%
[9]
  Max % Inhibition of Binding: -7%
[10]
  Max % Inhibition of Binding: 75%
[25]
  EC50: 0.423 µg/mL
  Inflexion point: 210000 ng/mL
[11]
  Specific Binding [MFI]: 493 MFI
[12]
  Specific Binding [MFI]: 516 MFI

## Rat-IgG2A isotype control (antibody)
[13]
  Specific Binding [MFI]: 84 MFI
[14]
  Specific Binding [MFI]: 86 MFI
[15]
  Specific Binding [MFI]: 70 MFI
[16]
  Specific Binding [MFI]: 91 MFI
[17]
  Specific Binding [MFI]: 71 MFI
[18]
  Specific Binding [MFI]: 68 MFI

B1: anti-TIM3 antibody Tim3_0016 variant (Tim3_0018) (antibody, V domains shown)
VH: QVTLKESGPGILQPSQTLSLTCSFSGFSLSTSGMSVGWIRQPSGKGLEWLAHIWLNDDVFFNPALKRRLTISKDTSNNQVFLQIASVVTADTATYYCVRANGYLYALDYWGQGISVTVSS
VL: QIVLTQSPAIMSASPGQKVTITCSASSSVNYTQWYQQKLGSSPKLWIYDAFKLAPGVPARFSGSGTGTSYSLTISSMEAEDAASYFCHQWSSYPWTFGGGTKLEIK
notes: Mouse monoclonal from hybridoma; also called TIM3-0016 variant (0018); Tim3_0016 variant 0018-A488
[19]
  Kd: 1.11 nM
Monomeric human Tim3-ECD [20]
  Kd: 3.4 nM
[26]
  IFNgamma release in MLR, % of rec hu IL-2 control, 1 µg/ml: 12%
  IFNgamma release in MLR, % of rec hu IL-2 control, 10 µg/ml: 30%
  IFNgamma release in MLR, % of rec hu IL-2 control, 40 µg/ml: 36%
[27]
  Specific Binding [MFI]: 417 MFI
[1]
  Specific Binding [MFI]: 1940 MFI
[28]
  Specific Binding [MFI]: 480 MFI
Tim3-ECD-His-Biotin [22]
  EC50: 0.0151 µg/mL
  Inflexion point: 15.3 ng/mL
[23]
  Kd: 41.9 nM
Tim3-ECD-His-Biotin [29]
  EC50: 0.56 nM and 0.094 µg/mL
[30]
  Specific Binding [MFI]: 301 MFI
[31]
  Kd: 1.1 nM
[25]
  EC50: 0.0146 µg/mL
  Inflexion point: 14.6 ng/mL
[11]
  Specific Binding [MFI]: 1820 MFI
[32]
  EC50: 0.0264 µg/mL
  Inflexion point: 29.4 ng/mL
[12]
  Specific Binding [MFI]: 2330 MFI
Monomeric human Tim3-ECD [33]
  Kd: 3.4 nM
[34]
  EC50: 0.52 nM and 0.087 µg/mL

B2: Fab-PE24 construct of anti-TIM3 antibody Tim3_0021 (Fab, V domains shown)
VH: QVQLQQSGPQLVRPGASVQISCKASGYSFTSYLLHWLKQRPGQGLEWIGMIDPSDSETRLNQKFKDKATLTVDKSSSTAYMQLSSPTSEDSAVYYCARDGYYAWYYFDCWGQGTTLTVSS
VL: DIVLTQSPATLSVTPGDRVSLSCRASQSIGNNLHWYQQKSHESPRLLIKYASHSISGIPSKFSGTGSGTDFTLSFNSVETEDFGMYFCQQSNSWPLTFGAGTKLELK
[35]
  Max. killing, Pfeiffer cells: 98.4%

B3: Fab-PE24 construct of anti-TIM3 antibody Tim3_0033 (Fab, V domains shown)
VH: QGQMHQSGAELVKPGSSVKLSCKTSGFTFSSSFISWLKQKPGQSLEWIAWIYAATGSTSYNQKFTNKAQLTVDTSSSAAYMQFSSLTTEDSAIYYCARHAGYPHYYAMDYWGQGTSVTVSS
VL: DIQMTQSPASLSASVGETVTITCRASENIFSNLAWYQQKQGKSPQLLVYSATNLGDGVPSRFSGSGSGTQFSLKINSLQPEDFGNYYCQHFYKIPFTFGTGTKLEIK
[35]
  Max. killing, Pfeiffer cells: 99.8%
  Max. killing, RPMI-8226 cells: 99.7%

From patent publication US20180072804A1 (Hoffmann-La Roche, published 2018)
